Results: patent publication US20240400654A1
Values joined by “and” are separate entries in the source; they are usually repeats but may differ in a detail not shown here. Identical values can stand only once.

Key:
[1] = target: HRgpA-6H (Porphyromonas gingivalis) (UniProt P28784); experiment: ELISA, FASEBA Fab supernatant on coated HRgpA-6H
[2] = target: HRgpA-6H (Porphyromonas gingivalis) (UniProt P28784); experiment: ELISA on coated HRgpA-6H, OD relative to parental Fab
[3] = target: HRgpA-6H (Porphyromonas gingivalis) (UniProt P28784); experiment: ELISA, FASEBA screening, coated HRgpA-6H; variant OD over parental WT Fab OD
[4] = target: HRgpA-6H (Porphyromonas gingivalis) (UniProt P28784); experiment: ELISA, FASEBA screening, coated HRgpA-6H 0.0625 ug/ml

B1: KB001 mouse Fab variant VL Y97I (Fab, V domains shown)
VH: EVQLKQSGPGLVAPSQSLSITCTVSGFSLSIYSVHWVRQPPGKGLEWLGMIWGGGSSDYNSALKSRLSISKDNSKSQVFLKMNSLQTDDTAMYYCARNGNFYAMDYWGQGTSVTVSS
VL: QIVLTQSPAIMSASLGERVTMTCTASSSVSSSFLHWYQQKPGSSPQLWIYSTSNLASGVPARFSGSGSGTSYSLTISSMEAEDAATYYCHQYHHSPIIYTFGGGTKLEIK
Work on B1 yielded an OD450 nm [1] of 0.667 and a Ratio OD(Variant)/OD(WT) [2] of 0.845 fold.

B2: KB001 mouse Fab variant VL T100V (Fab, V domains shown)
VH: EVQLKQSGPGLVAPSQSLSITCTVSGFSLSIYSVHWVRQPPGKGLEWLGMIWGGGSSDYNSALKSRLSISKDNSKSQVFLKMNSLQTDDTAMYYCARNGNFYAMDYWGQGTSVTVSS
VL: QIVLTQSPAIMSASLGERVTMTCTASSSVSSSFLHWYQQKPGSSPQLWIYSTSNLASGVPARFSGSGSGTSYSLTISSMEAEDAATYYCHQYHHSPYIYVFGGGTKLEIK
In the case of B2, the OD450 nm [1] is reported as 0.461 and 0.428 and the Ratio OD(Variant)/OD(WT) [2] is reported as 0.881 fold and 0.818 fold.

B3: KB001 mouse Fab variant VL I98R (Fab, V domains shown)
VH: EVQLKQSGPGLVAPSQSLSITCTVSGFSLSIYSVHWVRQPPGKGLEWLGMIWGGGSSDYNSALKSRLSISKDNSKSQVFLKMNSLQTDDTAMYYCARNGNFYAMDYWGQGTSVTVSS
VL: QIVLTQSPAIMSASLGERVTMTCTASSSVSSSFLHWYQQKPGSSPQLWIYSTSNLASGVPARFSGSGSGTSYSLTISSMEAEDAATYYCHQYHHSPYRYTFGGGTKLEIK
B3 was tested, and the OD450 nm [1] was 0.726 and 0.722 and the Ratio OD(Variant)/OD(WT) [2] was 0.83 fold and 0.825 fold.

B4: KB001 mouse Fab variant VL Y97F (Fab, V domains shown)
VH: EVQLKQSGPGLVAPSQSLSITCTVSGFSLSIYSVHWVRQPPGKGLEWLGMIWGGGSSDYNSALKSRLSISKDNSKSQVFLKMNSLQTDDTAMYYCARNGNFYAMDYWGQGTSVTVSS
VL: QIVLTQSPAIMSASLGERVTMTCTASSSVSSSFLHWYQQKPGSSPQLWIYSTSNLASGVPARFSGSGSGTSYSLTISSMEAEDAATYYCHQYHHSPFIYTFGGGTKLEIK
In the case of B4, the OD450 nm [1] is reported as 0.75 and 0.756 and the Ratio OD(Variant)/OD(WT) [2] is reported as 0.951 fold and 0.958 fold.

B5: KB001 mouse Fab variant VL Y97K (Fab, V domains shown)
VH: EVQLKQSGPGLVAPSQSLSITCTVSGFSLSIYSVHWVRQPPGKGLEWLGMIWGGGSSDYNSALKSRLSISKDNSKSQVFLKMNSLQTDDTAMYYCARNGNFYAMDYWGQGTSVTVSS
VL: QIVLTQSPAIMSASLGERVTMTCTASSSVSSSFLHWYQQKPGSSPQLWIYSTSNLASGVPARFSGSGSGTSYSLTISSMEAEDAATYYCHQYHHSPKIYTFGGGTKLEIK
B5 showed an OD450 nm [1] of 0.654 and a Ratio OD(Variant)/OD(WT) [2] of 0.829 fold.

B6: KB001 mouse Fab variant VL T100I (Fab, V domains shown)
VH: EVQLKQSGPGLVAPSQSLSITCTVSGFSLSIYSVHWVRQPPGKGLEWLGMIWGGGSSDYNSALKSRLSISKDNSKSQVFLKMNSLQTDDTAMYYCARNGNFYAMDYWGQGTSVTVSS
VL: QIVLTQSPAIMSASLGERVTMTCTASSSVSSSFLHWYQQKPGSSPQLWIYSTSNLASGVPARFSGSGSGTSYSLTISSMEAEDAATYYCHQYHHSPYIYIFGGGTKLEIK
B6 gave an OD450 nm [1] of 0.493 and a Ratio OD(Variant)/OD(WT) [2] of 0.942 fold.

B7: KB001 parental mouse Fab FASEBA variant VH K64Q (Fab, V domains shown)
VH: EVQLKQSGPGLVAPSQSLSITCTVSGFSLSIYSVHWVRQPPGKGLEWLGMIWGGGSSDYNSALQSRLSISKDNSKSQVFLKMNSLQTDDTAMYYCARNGNFYAMDYWGQGTSVTVSS
VL: QIVLTQSPAIMSASLGERVTMTCTASSSVSSSFLHWYQQKPGSSPQLWIYSTSNLASGVPARFSGSGSGTSYSLTISSMEAEDAATYYCHQYHHSPYIYTFGGGTKLEIK
With B7 the Ratio OD(Variant)/OD(WT) [3] was 0.954 and the OD450 nm [4] was 0.789.

B8: KB001 mouse Fab variant VL I98L (Fab, V domains shown)
VH: EVQLKQSGPGLVAPSQSLSITCTVSGFSLSIYSVHWVRQPPGKGLEWLGMIWGGGSSDYNSALKSRLSISKDNSKSQVFLKMNSLQTDDTAMYYCARNGNFYAMDYWGQGTSVTVSS
VL: QIVLTQSPAIMSASLGERVTMTCTASSSVSSSFLHWYQQKPGSSPQLWIYSTSNLASGVPARFSGSGSGTSYSLTISSMEAEDAATYYCHQYHHSPYLYTFGGGTKLEIK
Work on B8 yielded an OD450 nm [1] of 0.836 and a Ratio OD(Variant)/OD(WT) [2] of 0.955 fold.

B9: KB001 mouse Fab variant VL Y97V (Fab, V domains shown)
VH: EVQLKQSGPGLVAPSQSLSITCTVSGFSLSIYSVHWVRQPPGKGLEWLGMIWGGGSSDYNSALKSRLSISKDNSKSQVFLKMNSLQTDDTAMYYCARNGNFYAMDYWGQGTSVTVSS
VL: QIVLTQSPAIMSASLGERVTMTCTASSSVSSSFLHWYQQKPGSSPQLWIYSTSNLASGVPARFSGSGSGTSYSLTISSMEAEDAATYYCHQYHHSPVIYTFGGGTKLEIK
B9 was tested, and the OD450 nm [1] was 0.662 and the Ratio OD(Variant)/OD(WT) [2] was 0.839 fold.

B10: KB001 mouse Fab variant VL I98V (Fab, V domains shown)
VH: EVQLKQSGPGLVAPSQSLSITCTVSGFSLSIYSVHWVRQPPGKGLEWLGMIWGGGSSDYNSALKSRLSISKDNSKSQVFLKMNSLQTDDTAMYYCARNGNFYAMDYWGQGTSVTVSS
VL: QIVLTQSPAIMSASLGERVTMTCTASSSVSSSFLHWYQQKPGSSPQLWIYSTSNLASGVPARFSGSGSGTSYSLTISSMEAEDAATYYCHQYHHSPYVYTFGGGTKLEIK
In the case of B10, the OD450 nm [1] is reported as 0.832 and 0.838 and 0.787 and the Ratio OD(Variant)/OD(WT) [2] is reported as 0.951 fold and 0.958 fold and 0.899 fold.

B11: KB001 parental mouse Fab FASEBA variant VH K64L (Fab, V domains shown)
VH: EVQLKQSGPGLVAPSQSLSITCTVSGFSLSIYSVHWVRQPPGKGLEWLGMIWGGGSSDYNSALLSRLSISKDNSKSQVFLKMNSLQTDDTAMYYCARNGNFYAMDYWGQGTSVTVSS
VL: QIVLTQSPAIMSASLGERVTMTCTASSSVSSSFLHWYQQKPGSSPQLWIYSTSNLASGVPARFSGSGSGTSYSLTISSMEAEDAATYYCHQYHHSPYIYTFGGGTKLEIK
Work on B11 yielded a Ratio OD(Variant)/OD(WT) [3] of 0.803 and an OD450 nm [4] of 0.664.

B12: KB001 parental mouse Fab FASEBA variant VH K64E (Fab, V domains shown)
VH: EVQLKQSGPGLVAPSQSLSITCTVSGFSLSIYSVHWVRQPPGKGLEWLGMIWGGGSSDYNSALESRLSISKDNSKSQVFLKMNSLQTDDTAMYYCARNGNFYAMDYWGQGTSVTVSS
VL: QIVLTQSPAIMSASLGERVTMTCTASSSVSSSFLHWYQQKPGSSPQLWIYSTSNLASGVPARFSGSGSGTSYSLTISSMEAEDAATYYCHQYHHSPYIYTFGGGTKLEIK
Binder B12 has a Ratio OD(Variant)/OD(WT) [3] of 0.954 and an OD450 nm [4] of 0.789.

B13: KB001 parental mouse Fab FASEBA variant VH K64G (Fab, V domains shown)
VH: EVQLKQSGPGLVAPSQSLSITCTVSGFSLSIYSVHWVRQPPGKGLEWLGMIWGGGSSDYNSALGSRLSISKDNSKSQVFLKMNSLQTDDTAMYYCARNGNFYAMDYWGQGTSVTVSS
VL: QIVLTQSPAIMSASLGERVTMTCTASSSVSSSFLHWYQQKPGSSPQLWIYSTSNLASGVPARFSGSGSGTSYSLTISSMEAEDAATYYCHQYHHSPYIYTFGGGTKLEIK
In the case of B13, the Ratio OD(Variant)/OD(WT) [3] is reported as 0.981 and the OD450 nm [4] is reported as 0.811.

B14: KB001 mouse Fab variant VL I98M (Fab, V domains shown)
VH: EVQLKQSGPGLVAPSQSLSITCTVSGFSLSIYSVHWVRQPPGKGLEWLGMIWGGGSSDYNSALKSRLSISKDNSKSQVFLKMNSLQTDDTAMYYCARNGNFYAMDYWGQGTSVTVSS
VL: QIVLTQSPAIMSASLGERVTMTCTASSSVSSSFLHWYQQKPGSSPQLWIYSTSNLASGVPARFSGSGSGTSYSLTISSMEAEDAATYYCHQYHHSPYMYTFGGGTKLEIK
B14 gave an OD450 nm [1] of 0.729 and a Ratio OD(Variant)/OD(WT) [2] of 0.833 fold.

B15: KB001 mouse Fab variant VL Y97L (Fab, V domains shown)
VH: EVQLKQSGPGLVAPSQSLSITCTVSGFSLSIYSVHWVRQPPGKGLEWLGMIWGGGSSDYNSALKSRLSISKDNSKSQVFLKMNSLQTDDTAMYYCARNGNFYAMDYWGQGTSVTVSS
VL: QIVLTQSPAIMSASLGERVTMTCTASSSVSSSFLHWYQQKPGSSPQLWIYSTSNLASGVPARFSGSGSGTSYSLTISSMEAEDAATYYCHQYHHSPLIYTFGGGTKLEIK
B15 showed an OD450 nm [1] of 0.739 and a Ratio OD(Variant)/OD(WT) [2] of 0.937 fold.

B16: KB001 parental mouse Fab FASEBA variant VH S65H (Fab, V domains shown)
VH: EVQLKQSGPGLVAPSQSLSITCTVSGFSLSIYSVHWVRQPPGKGLEWLGMIWGGGSSDYNSALKHRLSISKDNSKSQVFLKMNSLQTDDTAMYYCARNGNFYAMDYWGQGTSVTVSS
VL: QIVLTQSPAIMSASLGERVTMTCTASSSVSSSFLHWYQQKPGSSPQLWIYSTSNLASGVPARFSGSGSGTSYSLTISSMEAEDAATYYCHQYHHSPYIYTFGGGTKLEIK
B16 was tested, and the Ratio OD(Variant)/OD(WT) [3] was 0.995 and 0.927 and the OD450 nm [4] was 0.823 and 0.767.

B17: KB001 parental mouse Fab FASEBA variant VH K64H (Fab, V domains shown)
VH: EVQLKQSGPGLVAPSQSLSITCTVSGFSLSIYSVHWVRQPPGKGLEWLGMIWGGGSSDYNSALHSRLSISKDNSKSQVFLKMNSLQTDDTAMYYCARNGNFYAMDYWGQGTSVTVSS
VL: QIVLTQSPAIMSASLGERVTMTCTASSSVSSSFLHWYQQKPGSSPQLWIYSTSNLASGVPARFSGSGSGTSYSLTISSMEAEDAATYYCHQYHHSPYIYTFGGGTKLEIK
With B17 the Ratio OD(Variant)/OD(WT) [3] was 0.953 and 0.975 and 0.883 and the OD450 nm [4] was 0.788 and 0.806 and 0.73.

B18: KB001 parental mouse Fab FASEBA variant VH K64M (Fab, V domains shown)
VH: EVQLKQSGPGLVAPSQSLSITCTVSGFSLSIYSVHWVRQPPGKGLEWLGMIWGGGSSDYNSALMSRLSISKDNSKSQVFLKMNSLQTDDTAMYYCARNGNFYAMDYWGQGTSVTVSS
VL: QIVLTQSPAIMSASLGERVTMTCTASSSVSSSFLHWYQQKPGSSPQLWIYSTSNLASGVPARFSGSGSGTSYSLTISSMEAEDAATYYCHQYHHSPYIYTFGGGTKLEIK
Work on B18 yielded a Ratio OD(Variant)/OD(WT) [3] of 0.948 and an OD450 nm [4] of 0.784.

B19: KB001 mouse Fab variant VL T100P (Fab, V domains shown)
VH: EVQLKQSGPGLVAPSQSLSITCTVSGFSLSIYSVHWVRQPPGKGLEWLGMIWGGGSSDYNSALKSRLSISKDNSKSQVFLKMNSLQTDDTAMYYCARNGNFYAMDYWGQGTSVTVSS
VL: QIVLTQSPAIMSASLGERVTMTCTASSSVSSSFLHWYQQKPGSSPQLWIYSTSNLASGVPARFSGSGSGTSYSLTISSMEAEDAATYYCHQYHHSPYIYPFGGGTKLEIK
In the case of B19, the OD450 nm [1] is reported as 0.46 and the Ratio OD(Variant)/OD(WT) [2] is reported as 0.879 fold.

B20: KB001 parental mouse Fab FASEBA variant VH K64D (Fab, V domains shown)
VH: EVQLKQSGPGLVAPSQSLSITCTVSGFSLSIYSVHWVRQPPGKGLEWLGMIWGGGSSDYNSALDSRLSISKDNSKSQVFLKMNSLQTDDTAMYYCARNGNFYAMDYWGQGTSVTVSS
VL: QIVLTQSPAIMSASLGERVTMTCTASSSVSSSFLHWYQQKPGSSPQLWIYSTSNLASGVPARFSGSGSGTSYSLTISSMEAEDAATYYCHQYHHSPYIYTFGGGTKLEIK
B20 was tested, and the Ratio OD(Variant)/OD(WT) [3] was 0.944 and the OD450 nm [4] was 0.781.
